In patent publication US20150030595A1 (ANTIBODY AND RECEPTOR THERAPEUTICS, published 2015) one finds Ratio and OD490 data, which are given here for ten molecules.

The labels stand for the following.
T1: ACVR2B-Fc fusion protein (human, UniProt Q13705 19-137)
T1 construct: also called water-soluble ACVR2B
T1 sequence: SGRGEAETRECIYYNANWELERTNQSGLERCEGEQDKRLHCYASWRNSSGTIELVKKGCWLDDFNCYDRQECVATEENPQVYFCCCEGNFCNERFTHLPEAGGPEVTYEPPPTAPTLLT

B1: ACVR2B A06 (monoclonal scFv-phage) (scFv, V domains shown)
VH: VQLVQSGGGLVQPGRSLRLSCTASGFTFGDYAMSWVRQAPGKGLEWVGFIRSKRYDGTAEYAASVKGRFTISRDDSKNSLYLQMNSLRAEDTAVYYCARGHYAMDVWGQGTTVTVSS
VL: DIQMTQSPSSLSASVGDRVTITCRASRSISNYLNWYQQKPGKAPKLLIYAASSLQSGVPSRFSGSGSGTDFTLTISSLQPEDFATYYCQQSYDTPFTFGLGNQLEIK
notes: also called A6
B2: ACVR2B D11 (monoclonal scFv-phage) (scFv, V domains shown)
VH: B1 VH with V1M, R18G, R54A, D56G, A59T, F69L, N78S, S79I, L80A, A103G
VL: DIQMTQSPSSLSASVGDRVTITCRASQNISNFLNWYQQKPGKAPKLLIYSASRLQRGVPSRFSGSGSGTDFTLTISSLQPEDFATYYCQQSYSTPYTFGQGTKLEIK
B3: ACVR2B B08 (monoclonal scFv-phage) (scFv, V domains shown)
VH: VQLVQSGGGLVHPGQSLRLSCTGSGFPFGDYSMTWVRQAPGKGLEWVGLVRSKAYGGTTEYAASVKGRFIMSRDDSRSIAYLQMNSLRAEDTAVYYCARGHYGMDVWGQGTTVTVSS
VL: DIQMTQSPSSVSASVGDRVTITCRASQGISNWLAWYQQKPGKAPKLLIYAASSLQSGVPSRFSGSGSGTDFTLTISSLQPEDFATYYCQQAKSYPYTFGQGTKVEIK
notes: also called B8
B4: ACVR2B C07 (monoclonal scFv-phage) (scFv, V domains shown)
VH: QMQLVQSGGGLVKPGGSLRLSCAPSGFTFRDYHMSWIRQAPGKGLEWISNISNSGTNIYYADSVKGRFTISRDNAKNSLYLQMNSLRAEDTAVYYCARGHYGMDIWGQGTTITVSS
VL: B3 VL with V11L, S30A, W32Y, S53T, A91V, Y96L, T97S, Q100G
notes: also called C7
B5: ACVR2B C08 (monoclonal scFv-phage) (scFv, V domains shown)
VH: VQLVESGGGLVQPGGSLRLSCSASGFTFSSYAMHWVRQAPGKGLEYVSAISSNGGSTYYADSVKGRFTISRDNSKNTLYLQMNSLRAEDTAVYYCAKTYGGYGNAFDIWGQGTMITVSS
VL: B3 VL with N31R, S53N, S76N, Y87F, A91G, Y94F, Q100P
notes: also called C8
B6: ACVR2B D07 (monoclonal scFv-phage) (scFv, V domains shown)
VH: QVQLVQSGAEVKKPGASVKVSCKASGYTFTSYYMHWVRQAPGQGLEWMGIINPSGGSTSYAQKFQGRVTMTRDTSTSTVYMELSSLRSEDTAVYYCAKDQSRGWYSNFDSWGQGTLVTVSS
VL: DIQMTQSPSTLSASVGDRVTITCRASQTVSNWLAWYQLKPGKAPKLLIYKASSLESGVPSRFSGTGSETEFTLTISSLQPDDFATYYCQQYHSYPITFGQGTRLEIK
notes: also called D7
B7: ACVR2B B11 (monoclonal scFv-phage) (scFv, V domains shown)
VH: VQLVESGGGLVQPGRSLRLSCAASGFTFDNHAMHWVRRAPGKGLEWVSGISWNGGTTAYADSVKGRFSIFRDNAEKSLYLQMNSLRAEDTAVYYCARGSSSGRYYFDYWGQGTLVTVSS
VL: DIQMTQSPSSVSASVGDRVTITCRASQGISTYLNWYQHQSGKAPKLLIYGAFRLQSGVPSRFSGSGSGTDFTLTISNLQPEDFATYYCQQAKNFPLTFGGGTKVDIK
B8: ACVR2B A09 (monoclonal scFv-phage) (scFv, V domains shown)
VH: VQLVESGGGLVQPGRSLRLSCAASGFTFDSYWMSWVRQAPGKGLEWVANIKYDGSEKHYMDSVKGRFTISRDNAKNSVYLQMNSLRAEDTAVYYCAKGAWLDYWGQGTQVTVSS
VL: IQMTQSPSAMSASVGDRVTITCRASQGISNYLAWFQQKPGKVPKRLIYAASSLQSGVPSRFSGSGSGTGFTLTITSLQPEDFATYYCLQHKSYPYTFGQGTKLEIK
notes: also called A9
B9: ACVR2B F08 (monoclonal scFv-phage) (scFv, V domains shown)
VH: VQLVESGGGLVQPGGSLRLSCAASGFTFSDHYMDWVRQAPGKGLEWVGRTRNKANSYTTEYAASVKGRFTISRDDSKNSLYLQMNSLRAEDTAVYYCTKGAWLDYWGQGTLVTVSS
VL: B8 VL with A49G, S55G, G69E, Y86F, Y95L, Q99P, L103V
notes: also called F8
B10: ACVR2B B12 (monoclonal scFv-phage) (scFv, V domains shown)
VH: VQLVQSGAEVKKPGESLKISCKTSGYTFTHYWIGWVRQMPGKGLEWMGRINPTDSYADYSPSFQGHVIMSVDKSVSTAYLHWNSLKASDTAMYYCARGTALGVWGQGTTVTVSS
VL: B8 VL with G69E

Residue numbers refer to the chain shown, from its start.

For one assay, the target named is T1, ACVR2B-Fc fusion protein. Put plainly: phage ELISA; OD on ACVR2B divided by OD on a-myc. A general note: An ELISA detects its analyte on a solid surface through an enzyme-linked reagent.
Regarding B1, the Ratio turned out to be 4.21.
The same measure, in the same setting: the value for B2 was 3.66.
In the case of B3, the Ratio is 2.28.
Same read-out and setting: as for B4, the figure is 6.75; as for B5, 2.45; as for B6, 11.
Still for that read-out and setting: the value for B7 was 4.55; that for B8 was 1.86.
On the same count and under the same terms, as for B9, the figure is 3.75.
B10: the Ratio came out at 1.89.

Another assay addresses T2, Fc.
T2 construct: domain: Fc
Put plainly: phage ELISA, Fc coated.
Regarding B1, the OD490 came to 0.046 OD.
The same measure, in the same setting: the value for B2 was 0.042 OD; that for B3 was 0.045 OD; that for B4 was 0.043 OD.
Molecule B5 came in with an OD490 of 0.072 OD.
On the same count and under the same terms, as for B6, the figure is 0.042 OD; as for B7, 0.047 OD; as for B8, 0.048 OD.
As for B9, the OD490 came out at 0.116 OD.
On the same count and under the same terms, the value for B10 was 0.044 OD.

Another assay concerns the target T3, anti-myc antibody coated on the ELISA plate.
T3 construct: also called a-MYC; a-myc
Put plainly: phage ELISA, anti-myc coated.
Molecule B1 registered an OD490 of 0.703 OD.
Same read-out and setting: as for B2, the figure is 0.833 OD; as for B3, 1.16 OD.
In the case of B4, the OD490 turned out to be 0.44 OD.
On to B5, for which the OD490 turned out to be 1.17 OD.
B6: the OD490 is 0.24 OD.
Turning to B7, the OD490 is 0.657 OD.
On the same count and under the same terms, the value for B8 was 1.17 OD.
On the same count and under the same terms, as for B9, the figure is 0.783 OD.
On the same count and under the same terms, as for B10, the figure is 1.46 OD.

The next assay deals with T3, anti-myc antibody coated on the ELISA …. Put plainly: phage ELISA, anti-myc coated. This is another data set of the same source. The method, then: (§1) Colonies obtained from a group of the polyclonal phage antibodies having high binding capacity were cultured at a temperature of 37° C. for 16 hours in a 96-deep well plate (Bioneer 90030) containing 1 ml of a medium supplemented with 2×YTCM, 2% glucose, and 5 mM MgCl₂. 100 to 200 μl of the cultured cells were taken, and diluted with 1 ml of a medium supplemented with 2×YTCM, 2% glucose, and 5 mM MgCl₂ so that the OD₆₀₀ value of the cultured cells reached 1. Thereafter, the cells were cultured at a temperature of 37° C. for 2 to 3 hours in a 96-deep well plate so that the OD₆₀₀ value reached 0.5 to 0.7. Then, the cells were infected with an […] so that an MOI value became 1:20, and then cultured at a temperature of 30° C. for 16 hours in a medium supplemented with 2×YTCMK, 5 mM MgCl₂, and 1 mM IPTG. The cultured cells were centrifuged (at 4,500 rpm and 4° C. for 15 minutes) to collect a supernatant. Then, the supernatant was thoroughly dissolved in 4% PEG 6000 and 3% NaCl, and reacted on ice for an hour. The resulting reaction mixture was centrifuged again (at 8,000 rpm and 4° C. for 20 minutes), and the pellet was dissolved in PBS, and then centrifuged (at 12,000 rpm and 4° C. for 10 minutes) to obtain a supernatant, which was transferred to a new tube and stored at 4° C. Subsequently, a 96-well immunoplate was coated with antigens at a concentration of 100 ng per well by treating the immunoplate with the antigens at 4° C. for 16 hours, and each well was then blocked with skim milk (4%) dissolved in PBS. Each well was washed with 0.2 ml of PBS-Tween 20 (0.05%), and 100 μl of the monoclonal scFv-phages obtained by the above-described method were added to each well, and then reacted at room temperature for 2 hours. Each well was again washed four times with […] of PBS-Tween 20 (0.05%), and a secondary antibody, anti-M13-HRP, was diluted at 1:2000, added to each well, and then reacted at room temperature for an hour. Each well was washed with […] of PBS-Tween 20, colorimetrically developed, and then measured for optical density at 490 nm.
Regarding B1, the OD490 came out at 0.704 OD.
The same measure, in the same setting: as for B2, the figure is 0.834 OD; as for B3, 1.16 OD.
In the case of B4, the OD490 turned out to be 0.441 OD.
Consider B5, for which the OD490 stood at 1.17 OD.
B6: the OD490 was determined as 0.241 OD.
Still for that read-out and setting: the value for B7 was 0.657 OD; that for B8 was 1.17 OD.
B9 gave an OD490 of 0.783 OD.
In the case of B10, the OD490 is 1.46 OD.

In the next assay the target is T2, Fc. Nature of the assay: phage ELISA, Fc coated. The source holds these as a separate data set. The method, then: as §1
Take B1: the OD490 was 0.046 OD.
Same read-out and setting: as for B2, the figure is 0.0429 OD; as for B3, 0.0455 OD; as for B4, 0.0435 OD.
Take B5: the OD490 is 0.0721 OD.
As for B6, the OD490 worked out at 0.0428 OD.
Turning to B7, the OD490 was found to be 0.0477 OD.
The same measure, in the same setting: as for B8, the figure is 0.0482 OD.
The same measure, in the same setting: the value for B9 was 0.117 OD.
Still for that read-out and setting: the value for B10 was 0.0447 OD.

The target in a further assay is T1, ACVR2B-Fc fusion protein. Nature of the assay: phage ELISA, ACVR2B coated.
With B1, the OD490 was 2.96 OD.
Same read-out and setting: as for B2, the figure is 3.05 OD; as for B3, 2.64 OD.
Still for that read-out and setting: the value for B4 was 2.98 OD; that for B5 was 2.87 OD.
The same measure, in the same setting: as for B6, the figure is 2.66 OD.
As to B7, the OD490 came to 2.99 OD.
With B8, the OD490 was determined as 2.18 OD.
The molecule B9 gave an OD490 of 2.94 OD.
Consider B10, for which the OD490 is 2.75 OD.

The next assay addresses T1, ACVR2B-Fc fusion protein. Put plainly: phage ELISA, ACVR2B coated. This is another data set of the same source. How it is done: as §1
Consider B1, for which the OD490 is 2.96 OD.
Molecule B2 gave an OD490 of 3.05 OD.
On the same count and under the same terms, as for B3, the figure is 2.64 OD.
As to B4, the OD490 worked out at 2.98 OD.
B5: the OD490 is 2.86 OD.
Molecule B6 had an OD490 of 2.66 OD.
With B7, the OD490 was 2.99 OD.
Molecule B8 displayed an OD490 of 2.18 OD.
On the same count and under the same terms, as for B9, the figure is 2.94 OD; as for B10, 2.76 OD.
